Molecular target: the molecule itself
Experiment: SAXS

B1: HsRXRαΔNTD (130-462) (domain or fragment)
chain: FTKHICAICGDRSSGKHYGVYSCEGCKGFFKRTVRKDLTYTCRDNKDCLIDKRQRNRCQYCRYQKCLAMGMKREAVQEERQRGKDRNENEVESTSSANEDMPVERILEAELAVEPKTETYVEANMGLNPSSPNDPVTNICQAADKQLFTLVEWAKRIPHFSELPLDDQVILLRAGWNELLIASFSHRSIAVKDGILLATGLHVHRNSAHSAGVGAIFDRVLTELVSKMRDMQMDKTELGCLRAIVLFNPDSKGLSNPAEVEALREKVYASLEAYCKHKYPEQPGRFAKLLLRLPALRSIGLKCLEHLFFFKLIGDTPIDTFLMEMLEAPHQMT
- stoichiometry N: 2
